Assay: yeast display, Sf9 membrane polyspecificity reagent, FACS + sequencing; frameworks hold sequencing errors
How it was run: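 A synthetic nanobody library was expressed on Saccharomyces cerevisiae BJ5465 by galactose induction for 36–48 hours. The library was stained for 1 hour at 4 °C with 10% biotinylated, detergent-solubilized Sf9 membrane reagent and enriched with streptavidin microbeads before FACS. Low and high (top ~1%) gates were set on anti-HA fluorescence for expression and streptavidin fluorescence for reagent binding, and each polyreactivity label reflects the gate of origin.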

| Sequence | polyreactivity (PSR sort gate) |
| --- | --- |
| QVQLVESGGGLVQAGGSLRLSCAASGSTFATYAMGWYRQAPGKERELVAAITLRGGRTYYADSVKGRFTISRDNAKNTVYLQMNSLKPEDTAVYYCAAEYYYLSFGLTWWRGFDYWGQGTQVTVSS | high polyreactivity |
| QVQLVESGGGLVQAGGSLRLSCAASGSIYQNAMGWYRQAPGKERELVAAITSSGGRTYADSVKGRFTISRDNAKNTVYLQMNSLKPEDTAVYYCAKDSTADELTGFDYWGQGTQVTVSS | low polyreactivity |
| QVQLVESGGGLVQAGGSLRLSCAASGTTFEVNAMGWYRQAPGKERELVATITRSGGSTYYADSVKGRFTISRDNAKNTVYLQMNSLKPEDTAVYYCNALWELKWGQGTQVTVSS | low polyreactivity |
| QVQLVESGGGLVQAGGSLRLSCAASGRIFFYNVMGWYRQAPGKERELVASIRWSGSGTYYADSVKGRFTISRDDAKNTVYLQMNCLKPEETAVYYCAVLGRVGYGVYPVDYWGQGTQVTVSS | high polyreactivity |
| QVQLVESGGGLVQAGGSLRLSCAASGRIFYFYAMGWSRQAPGKERELVAAITGSAGGTYYADSVKGRFTISRDTAKNTVYLQMNSLKPEDTAVYYCAAKYYGNKRDLYYWGQGTQVTVSS | low polyreactivity |
| QVHLVESGGGLVQAGGSLRLSFAASGFTFGQNAMGWYRQAPGKEREFVATITASGSTYYADSVKGRFTISRDNAKNTVYLQMYSLKPEDTAVYYCATRYAGEYYWDYDYWGQGTQVTVSS | high polyreactivity |
| QVLIVESGGGLVQAGGSLRLSCADSGLTLAHYTMGWYRQSPGKERELVAAITFSGGRTYYADSVKGRFTISRDNAKNTVYLQMNSLKPEDTAVYYCNDEYQWGGYGYDYWGQGTQVTVSS | low polyreactivity |
| QVQLVESGGGLVQAGGSLRLSCAASGIIFYFYTMGWYRQAPGKERELVAAISSSGGRTFYADSVKGRFTISRDNAKNTVYLQMNSLKPEDTAVYYCAAAHTREYYWGQGTQVTVSS | high polyreactivity |
| QVQLVESGGGLVQAGGSLRLSCAASGSTFVTYAMGWYRQAPGKERELVAAIDSGGNTNYADSVKGRFTISRDNAKNTVYLQMNSLKPEDTAVYYCAVRPYELNRLDDQPGGDDYWGQGTQVTVSS | low polyreactivity |
| QVHLVESGGGLFQAGGSLSISSASSGRTFYWYPMGWYRQAPGKERELVAAITGMGTRTYYADSVKGRFTISRDNAKNTDYLQMNSLKPEDTAVYYCNTRYYGGFDSWGQGTQVTVSS | high polyreactivity |
| QVQLLESGGGLVQAGGSLRLSCAASGSIFTVYAMGWYRQAPGKERELVAAITGSGGRTYYADSVKGRFTISRDNAKNTVYLQRNSLKPEDTAVYYCAATTRPGYRYEGDYWGQGTQVTVSS | low polyreactivity |
| QVQHVESAGGLVQAGGSLRLSCAASGRTFDYNAMGWYRQAPGKERELVAAISWRGGNTYYADSVKGRFTISRDNAKNTVYLQMNSLKPEDTAVYYCGAVYRYSTRNYGYWGQGTQVTVSS | high polyreactivity |
| QVQLVESGGGLVQAGGSLRLSCASSGSIFYQNAMGWYRQAPGKEREFVAAIRSSGSSTYYADSVKGRFTISRDNAKNTVYLQMNSLKPEDTAVYYCAAPSSRGQGRNFDYWGQGSQVTVSS | high polyreactivity |
| QVQLVESGGGLDQAGGSLRLSCAASGSIFWAYVMGWYRQAPGKERELVARISSGGRTKYADSVKGRFTISRDNAKNTVYLQMNSLKPEDTAVYYCNADASSSPYTDRQYIGADDSWGHGTQVTVSS | low polyreactivity |
| QVQLVESGGGLVHAGGSLRLSCAASGNIFRYNAMGWYRQAPGKERELVAAISSVGTTNYADSVKGRFTISRDNAKNTVYLQMNSLKPEDSAVYYCAAVAFQGGYWYDYWGQGTQVTVSS | low polyreactivity |
| QVQLVESGGGLVQAGGSLRLSCAASGSIFLPYAMGWYRQAPGKERELVAAITWGGDSTYADSVKGRFTISRDNAKNTVYLQMNSLKPEDTAVYYCAAGAGFESDYWGQGTQVTVSS | low polyreactivity |

| Sequence | polyreactivity (PSR sort gate) |
| --- | --- |
| QVQLVESGGGLVQAGGSLRLSCAASGYTFQHYAMGWYRQAPGKERELVAAITRRGSGTYYADSVKGRFTSSRDNAKNTVYLQMNSLKPEDTAVYYCAAAVGHGVDYWGQGTQVTVSS | high polyreactivity |
| QVQLVESGGGLVQAGGSLRLSCAASGRTFTRYAMGWYRQAPGKERELVATITRGGSTNYADSVKGRFTISRDNSKNTVYLQMNSLKPEDTAVYYCAAGYFIRTRSRYRYDYWGQGTQVTVSS | high polyreactivity |
| QVQLVESGGGLVQAGGSLRLSCAASGSIFTPYAMGWYRQAPGKESELVAAIRSGTSTNYADSVKGRFTISRDNAKNTVYLQMNSLKPEDTAVYYCAAVYWSRFYVRYDYWGQGTQVTVSS | high polyreactivity |
| QVQLVESGGGLVQARGSLRLSCAASGGTFLSYAMGWYRQAPGKERELVAGISSGGSTNYADSVKGRFTISRDNAKNTVYLQMNSLKPEDTAVDYCAADSFPSEFDYWGQGTQVTVSS | low polyreactivity |
| QVQLVESGGGLVQAGGSLRLSCAASGSIFGYYAMGWYTQAPGKERELVASITRGGSTYYADSVKGRFTISRDNAKNTVYLQMNSLKPEDTAVYYCAAAQWWFRVRGARYYYWGQGTQVTVSS | high polyreactivity |
| QVQLVESGGGLVQAGGSLRLICAASGRIFKNNAMGWYRQAPGKEREFVAAISSIGGRTYYADSVKGRFTISRDNAKNTVYLQMISLKPEDTAVYYCAARGYTGGLWYDYWGQGTQVTVSS | high polyreactivity |
| QVQLVESGGGLVQAGGSLRLSCAASGRTFHIYAMGWYRQAPGKERELLAAINYSGGSTYYADSVKGRFTISRDNAKNSVYLQMNSLKPEDTAVLYCAAVVYNVPWWFEYDYWGQGTQVTVSS | low polyreactivity |
| QVQLVESGGGLVQAGGSLRLSCAASGSTLYYNAMGWYRQAPGKERELVAAITSGGSTSYADSVKGRFTISRDNAKNTVYLQMNRLKPDDTAVYYCAAVFYRRFDYWGQGTQVTVSS | low polyreactivity |
| KVQLVESGGGLFQAVGSLRLSCADSGRTLGGYAMGWYRQAPGKDRELVAAITSDTGTNYADSVKGRFTISRDNAKNTVYLQMNSLKPEDTAVYYCAAERFYEYDYWGQGTQVTVSS | low polyreactivity |
| QVQLVESGGGLVQAGGSLRLSCAASGRTFGTNAMGWYRQAPGKERELVAAISRRGGSTYYADSVKGRFTISRDNAKNTVYLQMNSLKPEDTAVYYCAKTIGLKHEDEYWGQGTQVTVSS | low polyreactivity |
| QVQLVESGGGLVQAGGRLRLSCAASGFTFYYKAMGWYRQAPGKEWELVASITWSGGRTYYADSVKGRFTISRDNAKNTVYFQMNSLKPEDTAVYYCNAGYCIGLVAYGYWGQGTQVTVSS | low polyreactivity |
| QVQLQESGGGLVQAGGSLCLSCAASGTIFFDGDMGWYRQAPGKEREFVAAINPGGSAYYADSVKGRLPLAAITHTVYLQMNSLKPEDTAVYYCAAKLFDVYGYYYWGQGTHVTVSS | low polyreactivity |
| QVQLVESGGGLVQAGGSLRLSCAASGFTFRGYTMGWYRQAPGKERELVAAITRSGTTTYYADSVKGRFTISRDNAKNTVYLQMNSLKPEDTAVYYCATAKFYRQYGYWGQGTQVTVSS | high polyreactivity |
| QVQLVESGGGLVQAGGSLRLSCASSGFTFWYYAMGWYRQAPGKERELVASISRTGGTTYYADSVKGRFTISRDNAKNTVYLQMNSLKPEDTAVYYCNARPKVYYREYDYWGQGTQVSVSS | high polyreactivity |
| QVQLVESGGGLVQAGGSLRLSCAASGFTFYNYAMGWFRQATGKERELVAASNSGGSTYYADSVKGRFTSSRDNATNTVYLQMNSLKPEDTAVDYFAARSYYQYRRYYSWGQGTQVTVSS | high polyreactivity |
| QVQLVESAGGLVQAGGSLRLSCAASGRTLTFKTMGWYRQAPGKERELVAGISYSGGSTYYADSVKGRFTISRDNAKNTVYLQMNSLKPEDTAVYYCNAVRVYRRRYDSWGQGTKVTVSS | high polyreactivity |

— the nanobody polyreactivity screen of Harvey et al. (2022)
